Laboratory results as given in the Human Domainome abundance scans (Beltran et al. 2025).

B1: Far upstream element-binding protein 3, residues 75 to 150; numbered along this chain, Q96I24 (parent)
chain: RTVITEEFKVPDKMVGFIIGRGGEQISRIQAESGCKIQIASESSGIPERPCVLTGTPESIEQAKRLLGQIVDRCRN

Variants of: B1
Test: abundance fitness (aPCA) (normalised: wild type 0, dead -1); higher = more abundant; growth selection in yeast, the domain comes from the species named
Details: Homo sapiens

Abundance fitness: each site, then its substitutions
Q38: W -0.107 | H -0.059 | K -0.022 | F -0.1 | S -0.06 | Y -0.172 | N -0.086 | P -0.829 | R -0.055 | D -0.092 | E -0.013 | M -0.101 | V -0.007 | G -0.105 | C -0.053 | A -0.038 | T -0.047 | I -0.098
I39: A -0.437
Q25: C -0.025 | E -0.024 | I -0.112 | P -0.163 | Y -0.197 | W -0.213 | H -0.077 | M -0.036 | V -0.08 | S -0.026 | R 0.023 | K -0.037 | N -0.041 | G -0.058 | L -0.138 | A -0.098 | F -0.105 | T -0.133
I19: W -0.096 | T -0.039 | S -0.045 | R -0.045 | V -0.033
I37: N -0.69 | C -0.239 | M -0.232 | P -0.609 | Y -0.799 | H -0.816 | L -0.158 | S -0.658 | K -0.522 | E -0.595 | G -0.664 | A -0.515 | Q -0.665 | T -0.505 | R -0.73 | D -0.528 | F -0.447 | W -0.955
S27: R 0.068 | Q -0.066 | G 0.004 | C -0.147 | N 0.023 | Y -0.241 | F -0.153 | A -0.033 | W -0.167 | D -0.084 | L -0.075 | T 0.026 | H -0.117 | I -0.187 | E -0.014 | V -0.092 | P -0.232
R28: T -0.064 | N -0.125 | L -0.143 | V -0.202 | M -0.104 | Y -0.173 | H -0.108 | C -0.172 | W -0.118 | D -0.077 | F -0.218 | A -0.024 | P -0.617 | E -0.079 | S -0.085 | Q -0.02
K36: D 0.001 | S -0.034 | G -0.112 | A -0.065 | T -0.051 | F -0.234 | Q -0.065 | L -0.057 | E -0.02 | C -0.116 | W -0.18 | R -0.027 | M -0.066 | Y -0.14 | V -0.101 | I -0.112 | P -0.811
Q30: P -0.693 | D -0.582 | F -0.464 | L -0.471 | W -0.487 | G -0.171 | M -0.097 | H -0.279 | R -0.05 | N -0.369 | Y -0.31 | V -0.142 | K -0.171 | A -0.058 | E 0.029 | I -0.131 | T -0.11 | S -0.051
C35: Y -0.578 | L -0.763 | F -1.06 | V -0.157 | R -0.732 | K -0.608 | Q -0.588 | N -0.539 | E -0.539 | W -0.895 | H -0.585 | A -0.025 | I -0.397 | P -0.758 | S -0.276 | G -0.663
R21: T 0.009 | M -0.002 | E 0.004 | S 0.005 | D -0.071 | N 0.004 | I -0.107 | K -0.025 | V -0.057 | F -0.147 | Q -0.009 | L -0.057 | Y -0.182 | H -0.028 | G -0.064 | A 0.005 | C -0.089 | W -0.187
A31: R -0.005 | K 0.033 | N -0.044 | Y -0.076 | F -0.127 | W -0.168 | P -0.774 | G -0.06 | V -0.061 | H 0.057 | Q 0.003 | S -0.029 | E 0.025 | I -0.025 | T -0.039 | D -0.015 | M -0.07 | L -0.063
I29: A -0.213 | M -0.105 | H -0.622 | V -0.049 | W -0.521 | R -0.856 | E -0.621 | C -0.191 | P -0.625 | G -0.677 | L -0.034 | F -0.278 | Y -0.579 | K -0.676 | T -0.271 | D -0.432 | Q -0.599 | S -0.595
G22: V -0.191 | K -0.007 | T -0.09 | N 0.006 | Q -0.085 | P -0.276 | W -0.149 | A -0.045 | F -0.1 | I -0.086 | C -0.057 | Y -0.161 | E -0.044 | S -0.078 | D 0.016 | R -0.012
G34: C -0.268 | L -0.264 | E -0.089 | R -0.079 | S -0.079 | T -0.268 | W -0.665 | A -0.124 | P -0.775 | F -0.292 | N -0.046 | K -0.027 | D -0.073 | Q -0.06 | H -0.155 | Y -0.361 | I -0.736
G23: S -0.087 | Q -0.042 | Y -0.182 | K -0.082 | E -0.037 | R -0.056 | V -0.193 | N -0.058 | F -0.117 | I -0.294 | D -0.091 | C -0.17 | H -0.077 | M -0.078 | T -0.1
E24: R 0.113 | G -0.045 | C 0.031 | A -0.008 | Y 0.062 | T 0.008 | S 0.016 | Q 0.055 | N 0.052 | I -0.035 | W 0.222 | H 0.059 | L -0.112 | M -0.019 | V -0.03 | K 0.063 | P -0.271 | F -0.043 | D -0.053
I26: G -0.533 | P -0.628 | N -0.538 | A -0.192 | H -0.144 | F -0.173 | S -0.436 | C -0.21 | R -0.251 | L -0.019 | T -0.262 | V -0.024 | D -0.518 | Q -0.193 | Y -0.288 | W -0.2 | M -0.052 | E -0.436 | K -0.232
G20: Q -0.116 | S -0.151 | V -0.707 | Y -0.524 | P -0.347 | T -0.228 | D -0.104 | E -0.127 | N -0.17 | H -0.243 | C -0.459 | W -0.483 | M -0.312 | R -0.168 | L -0.474 | A -0.118
S33: V -0.247 | Q -0.732 | G -0.747 | T -0.063 | N -0.685 | D -0.648 | R -0.827 | K -0.787 | C -0.079 | H -0.716 | A -0.138 | E -0.641 | P -0.728 | I -0.358 | M -0.646 | F -0.591
E32: R -0.039 | P -0.95 | M -0.045 | K -0.054 | G -0.237 | Q 0.016 | V -0.073 | N -0.173 | C -0.128 | S -0.093 | A -0.074 | H -0.2 | I -0.04 | L -0.044 | D -0.005 | Y -0.049 | W -0.131 | T -0.055
